# Assay results as given in patent US20040170601A1, “Method of improving the growth performance of an animal” (priority 2001, published 2004).
# “Also recorded” adds a separate entry of the source.
# B1: interleukin 5 (protein, UniProt Q9MYM5 22-134, looked up)
# Interleukin-5: VENTMNRLVAETLTLLSIHRTLLIGDGNLMISTPVHTNHQLCIEEVFQGIDTLKNQTARGDAVEKLFQNLSLIKEYIDRQKKNCGGERWRVTQFLDYLQVFLGVINTEWTMES
# notes: recombinant porcine IL-5 protein expressed in E. coli; + / − = with / without antibiotic medicated feed and water, +p = weaner period only
# Assays:
# eosinophils [1] = experiment: Example 3: mode of administration of IL-5 (protein or DNA) on eosinophils; type: in vivo, pigs; details: six times over 2 weeks
# Procedure: This trial compared the delivery of IL-5 as recombinant protein or by DNA using different routes of administration. Each treatment was administered six times over 2 weeks (Days 0, 1, 3, 6, 8, 10).
# 6 pigs/treatment group. Blood haematology measured.
# The experiment was conducted using medicated feed Barastoc EziWean 150 then Bunge Grolean CREEP ad libitum in an experimental environment (PC2 containment facilities).
# Blood total and differential counts were performed using a CellDyn 3700 haematology machine.
# [2] = tested on: H. parasuis, APP and Swine dysentry; experiment: Example 4: deaths and production loss from infectious disease; type: in vivo, pigs; details: for number of deaths during trial: 20 per group; for deaths (autopsy report summary) / production loss (deaths from infectious disease or weight loss): weaner period
# Procedure: This trial evaluated the capacity of IL-5 to improve growth performance and immunity of pigs by comparing the growth rate and health of weaner pigs (28 day old weaners is Day 0 of the trial and the weaner period continued for 42 days) through to the finisher stage (Days 93 to 113) and slaughter (133 days after commencing the trial). The pigs were administered recombinant porcine cytokine, IL-5, and saline was used as a control, with and without standard weaner medicated water and feed in a commercial piggery environment.
# 40 pigs per treatment mixed in-groups of 20, with 4 replicates containing standard medicated water and feed and 4 replicates without medicated feed or water.
# These are possibly a reflection of resistance to infections as all pigs were subjected to a severe exposure of pathogens (deaths occurred from H. parasuis “Glasser's”, APP and Swine dysentry).
# The production loss in terms of deaths from infectious disease or weight loss as measured by weekly weighing is shown in FIG. 13. No deaths occurred in the IL-5 medicated group (FIG. 13), a factor that influenced the positive effect of IL-5 on increasing total group weight as described above (FIG. 10). The majority of deaths also included prior weight loss, but were recorded as deaths only. The antibiotic medicated groups had reduced numbers of pigs that lost weight during 1 or more weeks during the weaner period compared to the un-medicated groups. The first week after weaning was where the majority (>80%) of pigs lost weight.
# [3] = Example 5: production loss during outbreak of post weaning scours; type: in vivo, pigs; details: normal antibiotics, 2 days into weaner period
# Text: (§1) Unfortunately, a severe outbreak of post weaning scours affected all treatment groups. The most likely cause of the scours was E. coli. […] FIG. 25 compares the average weights of the saline controls, with and without antibiotics, from this experiment and the previous experiment. […] The infectious disease (scours) affected the un-medicated saline group at an earlier stage than the medicated group.
# (§2) Weights were taken from the start to the end of the weaner period. […] This benefit was also reflected in the production loss as measured by deaths from infectious disease, or weight loss over any given week during the weaner period (FIG. 29).
# (§3) All other deaths were a result of scours. Weight loss was defined as one or more weekly weight reductions of individual pigs. […] Antibiotic supplements also lessened production loss. Weight loss could have also been a result of stress, especially at the time of weaning when pigs are removed from sows, transported, mixed in different social groups and fed dry food. […] The higher average weights were presumably due to reduced severity of disease and associated weight loss. […] The pattern of higher average weight gains in IL-5 treated pigs was repeated with the reduced level and normal level of antibiotic supplementation (FIG. 31 and FIG. 32 respectively). […]
# E. coli = experiment: as above; type: in vivo, pigs; details: vs respective saline controls
# Text: as §1, §2, §3
# eosinophils [4] = experiment: Example 5: haematology, eosinophil levels; design: species or system pigs; details: pig, in vivo
# Procedure: Pigs were weaned and weighted at the start of the experiment (D0, W0) and weekly until the end of the weaner period (W6), at the end of the grower (W13) and finisher (W19) stages and once during the grower (W9) and finisher (W16) stages. Blood and sera samples were collected at the start (before treatments) and end of the weaner, grower and finisher periods. Blood and sera were taken prior to treatment injection. Haematology (totals and differentials) was performed.
# Haematology and differentials were undertaken at various time points during the trial. There were no significant changes between groups for these parameters except for eosinophil levels (FIG. 41).
# [5] = tested on: Brachyspira (Serpulina) hyodysenteriae; experiment: Example 7: swine dysentery challenge, IL-5 prophylactic; type: in vivo, pigs; design: reduction in the number of spirochaetes compared to saline treated pigs: concentration or dose not given beside the values
# Text: One aim of this example was to determine whether IL-5 could improve the health of pigs infected with an enteric inflammatory pathogen causing swine dysentery, Brachyspira (Serpulina) hyodysenteriae. A further aim was to determine whether IL-5 could improve the growth rate of pigs under conditions of challenge with swine dysentery.
# Male pigs with a mean starting weight of 6.5 kg, were allocated to treatment groups consisting of eight pigs (Table 6). Pigs were housed in group pens, with each pen containing a replicate from each of the treatment groups. One group of 8 pigs was housed in a separate room and left uninfected to act as untreated controls. Pigs were provided with pelleted feed and water ad libitum.
# Prior to swine dysentery challenge, pigs were treated with recombinant IL-5 or saline, as described in Table 6. Cytokines and the antibiotic, Lincomycin, were delivered by intramuscular injection at intervals outlined in Table 7. Pigs were infected with Brachyspira hyodysenteriae at day 0, day 1 and day 2, given as an oral bolus of 120 ml of spirochaete culture in log phase of growth, containing approximately […].
# Faecal swabs and blood samples were taken from each pig at intervals described in Table 7. Faecal swabs were cultured for the presence of spirochaetes. Blood samples were assayed for immunological parameters as described in example 1 above. Pigs were weighed at weekly intervals throughout the experiment, which was terminated by euthanasia on days 19 and 20 after the initial challenge. At post mortem swabs from areas of the hindgut were cultured for the presence of spirochaetes, and the gross pathological condition of the gastro-intestinal tissue noted.
molecule,measurement,setting,value
B1,circulating eosinophil numbers (percentage of WBC),"eosinophils [1]; 100 μg rec.IL-5 IM hind leg, listed as Recombinant IL-5",elevated circulating eosinophil numbers
same,circulating eosinophil numbers (percentage of WBC),"eosinophils [1]; 100 μg rec.IL-5 IM hind leg, listed as recombinant IL-5",increase in the duration and level of eosinophils in blood
same,circulating eosinophil numbers (percentage of WBC),eosinophils [1]; 100 μg rec.IL-5 intranasal spray,slight increases on eosinophil numbers compared to the DNA control but not statistically significant
same,number of deaths during trial,"[2]; Final (Day 133), medicated",0
same,number of deaths during trial,"[2]; Final (Day 133), un-medicated",3
same,number of deaths during trial,"[2]; Weaner (Day 42), medicated",0
same,number of deaths during trial,"[2]; Weaner (Day 42), un-medicated",2
same,condition and health of pigs,[2]; medicated,excellent condition and health compared to other groups
same,deaths (autopsy report summary),[2]; medicated,No deaths or intervention
same,production loss (deaths from infectious disease or weight loss),[2]; medicated,no pig from the medicated IL-5 treatment group lost weight or died from infectious disease
same,production loss (deaths from infectious disease or weight loss),[2]; un-medicated,reduced production loss
same,deaths (autopsy report summary),[2]; unmedicated,2x H. parasuis
same,deaths,[3],H. parasuis deaths occurred
same,"production loss (deaths from infectious disease or weight loss), weaner period",E. coli,less production loss compared to their respective saline controls
same,levels of eosinophils in blood (absolute numbers and differentials),eosinophils [4],significantly increased the levels of eosinophils in blood
same,spirochaete shedding in faeces (faecal culture),[5]; after challenge,decreasing levels of spirochaete shedding by day 14 after challenge
same,reduction in the number of spirochaetes compared to saline treated pigs,"[5]; anterior colon, post mortem",63%
same,reduction in the number of spirochaetes compared to saline treated pigs,"[5]; caecum, post mortem",60%
same,reduction in the number of spirochaetes compared to saline treated pigs,"[5]; faecal, post mortem",68%
same,number of spirochaetes cultured from the hindgut at post mortem,"[5]; pig, in vivo",reduced the number of spirochaetes residing in the gut compared to saline controls; also recorded: comparable to that shown by the Lincocin antibiotic
same,incidence of clinical signs in faeces (of 8 pigs),[5]; post mortem,3 pigs
same,reduction in the number of spirochaetes compared to saline treated pigs,"[5]; posterior colon, post mortem",47%
